Key:
[1] = molecular target: the molecule itself; experiment: SEC
[2] = molecular target: T1, LexA RKG/AAA (Mycobacterium tuberculosis, UniProt P9WHR7 1-236, R75A;K76A;G77A); experiment: BLI; pH 7.5; association up to 600 s; BLI: 10 mM HEPES pH 7.5, 50 mM NaCl, 25 C (pH 4 buffer not stated), 1:1 global fit; […]; settings: protein: recombinant; tags: 6xHis; chain copies: 2; label: 5' biotin on strand 1; blunt
T1 sequence: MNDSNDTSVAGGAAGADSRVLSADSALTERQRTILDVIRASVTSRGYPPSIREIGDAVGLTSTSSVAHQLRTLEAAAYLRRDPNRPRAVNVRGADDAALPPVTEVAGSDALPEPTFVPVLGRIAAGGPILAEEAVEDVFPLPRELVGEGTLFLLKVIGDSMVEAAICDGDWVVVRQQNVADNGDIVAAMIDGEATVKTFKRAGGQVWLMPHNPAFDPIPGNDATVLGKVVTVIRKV

[3] = molecular target: T1, LexA RKG/AAA; experiment: ANS extrinsic fluorescence quench; ANS, 1:2 ratio; no significant quench; BLI: 10 mM HEPES pH 7.5, 50 mM NaCl, 25 C (pH 4 buffer not stated), 1:1 global fit; […]; settings: protein: recombinant; tags: 6xHis; chain copies: 2; blunt
[4] = molecular target: T1, LexA RKG/AAA; experiment: EMSA; 128 nM protein; BLI: 10 mM HEPES pH 7.5, 50 mM NaCl, 25 C (pH 4 buffer not stated), 1:1 global fit; […]; settings: protein: recombinant; tags: 6xHis; chain copies: 2; label: 32P end label, no biotin; blunt

B1: Mycobacterium tuberculosis LexA, wild type (natural protein)
chain: MNDSNDTSVAGGAAGADSRVLSADSALTERQRTILDVIRASVTSRGYPPSIREIGDAVGLTSTSSVAHQLRTLERKGYLRRDPNRPRAVNVRGADDAALPPVTEVAGSDALPEPTFVPVLGRIAAGGPILAEEAVEDVFPLPRELVGEGTLFLLKVIGDSMVEAAICDGDWVVVRQQNVADNGDIVAAMIDGEATVKTFKRAGGQVWLMPHNPAFDPIPGNDATVLGKVVTVIRKV
notes: also called Mtb LexA; WT Mtb LexA
stoichiometry N [1]: 2

B2: Mtb LexA RKG/AAA (natural protein)
chain: MNDSNDTSVAGGAAGADSRVLSADSALTERQRTILDVIRASVTSRGYPPSIREIGDAVGLTSTSSVAHQLRTLEAAAYLRRDPNRPRAVNVRGADDAALPPVTEVAGSDALPEPTFVPVLGRIAAGGPILAEEAVEDVFPLPRELVGEGTLFLLKVIGDSMVEAAICDGDWVVVRQQNVADNGDIVAAMIDGEATVKTFKRAGGQVWLMPHNPAFDPIPGNDATVLGKVVTVIRKV
notes: also called RKG/AAA mutant; RKG mutant
stoichiometry N [1]: 2

B3: dnaE2_44mer SOS box, biotinylated (dsDNA)
DNA 1: ACAACTGCGCTGTATCGAACAATTGTTCGATATACTGTGGAATG
DNA 2: CATTCCACAGTATATCGAACAATTGTTCGATACAGCGCAGTTGT
binding result [2]: no binding

B4: dnaE2 44mer SOS box, non-biotinylated (dsDNA)
DNA 1: ACAACTGCGCTGTATCGAACAATTGTTCGATATACTGTGGAATG
DNA 2: CATTCCACAGTATATCGAACAATTGTTCGATACAGCGCAGTTGT
binding result [3]: no binding

B5: dnaE2 44mer SOS box, 32P end-labeled (dsDNA)
DNA 1: ACAACTGCGCTGTATCGAACAATTGTTCGATATACTGTGGAATG
DNA 2: CATTCCACAGTATATCGAACAATTGTTCGATACAGCGCAGTTGT
binding result [4]: no binding

B6: Mtb LexAΔ24aa (domain or fragment)
chain: SALTERQRTILDVIRASVTSRGYPPSIREIGDAVGLTSTSSVAHQLRTLERKGYLRRDPNRPRAVNVRGADDAALPPVTEVAGSDALPEPTFVPVLGRIAAGGPILAEEAVEDVFPLPRELVGEGTLFLLKVIGDSMVEAAICDGDWVVVRQQNVADNGDIVAAMIDGEATVKTFKRAGGQVWLMPHNPAFDPIPGNDATVLGKVVTVIRKV
notes: also called ∆24aa variant; LexA∆24aa
stoichiometry N [1]: 2

B7: Mtb LexAΔ18aa (natural protein)
chain: MNDSNDTSVAGGAAGADSRVLSADSALTERQRTILDVIRASVTSRGYPPSIREIGDAVGLTSTSSVAHQLRTLERKGYLRRDPNRPRAVNVRGPEPTFVPVLGRIAAGGPILAEEAVEDVFPLPRELVGEGTLFLLKVIGDSMVEAAICDGDWVVVRQQNVADNGDIVAAMIDGEATVKTFKRAGGQVWLMPHNPAFDPIPGNDATVLGKVVTVIRKV
notes: also called ∆18aa variant; LexA18aaΔ
stoichiometry N [1]: 2

From paper PMC8607333, “Real-time kinetic studies of Mycobacterium tuberculosis LexA–DNA interaction” (Bioscience Reports, 2021)
